{
  "source": "patent US20250027060A1",
  "about": "(VIB VZW, published 2025)",
  "binders": {"B1": {"name": "ALKAL2^H100A (residues 78-152) (ligand, human, UniProt Q6UX46 78-152, looked up)", "chain": "PSPEQRVEIVPRDLRMKDKFLKALTGPLYFSPKCSKHFHRLYHNTRDCTIPAYYKRCARLLTRLAVSPVCMEDKQ", "notes": "range 78-152; Avi-tagged and biotinylated in BLI; also called ALKAL2 site 2 mutant H100A"}},
  "key": {"[1]": {"target": "T1, LTKTG-EGFL (human LTK amino acids 63-420) (human, UniProt P29376 63-420)", "T1 construct": "Fc-His6 tag removed by caspase 3; also called LTK (in BLI, SEC-MALLS and ITC)", "T1 sequence": "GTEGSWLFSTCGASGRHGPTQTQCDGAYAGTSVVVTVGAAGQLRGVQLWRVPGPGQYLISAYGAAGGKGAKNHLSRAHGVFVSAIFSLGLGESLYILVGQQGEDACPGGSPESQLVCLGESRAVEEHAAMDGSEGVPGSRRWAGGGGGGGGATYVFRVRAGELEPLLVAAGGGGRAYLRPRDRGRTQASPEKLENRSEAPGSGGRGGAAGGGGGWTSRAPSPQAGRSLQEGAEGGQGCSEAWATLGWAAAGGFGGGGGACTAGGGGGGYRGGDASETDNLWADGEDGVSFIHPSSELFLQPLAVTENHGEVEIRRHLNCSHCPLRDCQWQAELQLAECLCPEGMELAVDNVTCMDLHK", "test": "BLI, biotinylated ALKAL2 H100A on streptavidin biosensors, LTKTG-EGFL in solution, dilution series 6.4 µM-400 nM, biphasic fit, component 1", "description": "(§1) FIGS. 10A and 10B Representative response curves as measure by biolayer-interferometry (BLI) for the interaction of WT ALKAL1 and ALKAL1 mutants (containing charge-reversal mutations of residues involved in site 1) (FIG. 10A) and WT ALKAL2 and ALKAL2 mutants (FIG. 10B) with ALK_TG-EGFL and LTK_TG-EGFL. For WT ALKALs LTK curves were fitted with a 2:1 binding model (red) while for ALK a 1:1 model was used. Start and end concentrations of the 3-fold dilution series used for the WT measurements is shown as an inset while for all mutants a […] dilution series from 6.4 μM-400 nM was used.\n(§2) All measurements of binding kinetics and dissociation constants were performed using an Octet Red 96 (Forté Bio) in assay buffer (20 mM HEPES pH 7.4, 150 mM NaCl, 0.02% (w/v) BSA, 0.002% (v/v) Tween 20) at 298K. ALKALs were immobilized to a level of 0.5 nm on streptavidin-coated biosensors (Forté Bio). To verify that no a specific binding was present during the assay, non-functionalized biosensors were used as a control by measuring in parallel all ligand concentrations as well as running buffer. For all mutants a two-fold dilution series from 6.4 μM-400 nM was employed. Data analysis was performed using the Data Analysis software 9.0.0.14 (Forté Bio) and binding curves were exported to Prism8 (Graphpad Software) for plotting of curves."}, "[2]": {"target": "T1, LTKTG-EGFL (human LTK amino acids …)", "test": "BLI, biotinylated ALKAL2 H100A on streptavidin biosensors, LTKTG-EGFL in solution, dilution series 6.4 µM-400 nM, biphasic fit, component 2", "description": "as §1, §2"}, "[3]": {"target": "T1, LTKTG-EGFL (human LTK amino acids …)", "test": "BLI, biotinylated ALKAL2 H100A on streptavidin biosensors, LTKTG-EGFL in solution, dilution series 6.4 µM-400 nM, biphasic fit, component 2; the sheet prints x0^-1, taken as x10^-1", "description": "as §1, §2"}},
  "data": [
    {"binder": "B1", "values": [
      {"measurement": "Kd", "setting": "[1]", "value": 280, "unit": "nM"},
      {"measurement": "koff", "setting": "[1]", "value": 0.00082, "unit": "s⁻¹"},
      {"measurement": "kon", "setting": "[1]", "value": 2900, "unit": "M⁻¹ s⁻¹"},
      {"measurement": "Kd", "setting": "[2]", "value": 3000, "unit": "nM"},
      {"measurement": "kon", "setting": "[2]", "value": 53000, "unit": "M⁻¹ s⁻¹"},
      {"measurement": "koff", "setting": "[3]", "value": 0.16, "unit": "s⁻¹"}
    ]}
  ]
}
